Reference: the DeepSol protein solubility set

Assay: soluble on expression in E. coli; label from the status in PepcDB or PDB records

Row | Sequence | soluble on expression in E. coli
1 | MDWYEPGEDTYTLMDALEREGLEMKIVLDLGTSTGVITEQLRKRNTVVSTDLNIRALESHRGGNLVRADLLCSINQESVDVVVFNPPYVPDTDDPIIGGGYLGREVIDRFVDAVTVGMLYLLVIEANRPKEVLARLEERGYGTRILKVRKILGETVYIIKGEKS | not soluble
2 | MNLVGIVGTNSERSTNRKLLRFMAEHFAPQAAIEVLEIKDLPAFDEPENKTAPAAVTAFSKKIAAADGVIIATPEYNHTIPAPLGSALEWIAYTSRVLVNKPVMIVGCSLGALGTSRAQAHLRQILDAPELKARVMPGTEFFLGHSEHVLDDDFNLNNPEKVAELEEHFTEFQDFVIVTNQIVKQADTDRKKAFVWEAGELEHHHHHH | soluble
3 | MGSDKIHHHHHHMYPKNFWYVGAMKHEVGRQLLARTLLEQPVVFFRRNDGSVAALADRCSHRRVSLSLGRLIGDEVQCGYHGLTFAGDGSCTSIPGQSRVPPSACVRSYPVVERDGFVWIWPGDPALANETLVPDYAEICSSGRYVGRPAEALLVEAPFLFNIENVLDLSHVTYAHPETVGTPEVALTRPTVDVSEAKVQVTRNWDKASTGPSFKNLFGWDFVKNSQRISFWPGANMLLEIEVEPVGNNDPTQIKRLRVPGPCTPSTSTTHFKFSALYRDFLPDNEALTVGMFEQFRKTVMEDKVLMENQQRNWALDGVEVIRRIEPSSSGGMMDIAVDHAPLAARRWLQRLAMAERSAPEIKAPGVLQG | not soluble
4 | MAHHHHHHMDDYHDDDVHSNYGYEDDEYDDAADDWEAEAAEEEQRAVAEEAARQARLEKKLATRAPVKKEEEEEAVPEDVERAMADMRQVANDIASGSALLSGGDSEELIGNHKLASDADVERVGTMIADRLTSFSDSGHYDKLIVEVFQRLTNHLTSTHLLNEEADRVHRLREELKRAAKAKLKPVEKAPVTQSGLDLDNFEDRGGAAVADNEDETGW | soluble
5 | MEDLALRPKTLDEYIGQERLKQKLRVYLEAAKARKEPLEHLLLFGPPGLGKTTLAHVIAHELGVNLRVTSGPAIEKPGDLAAILANSLEEGDILFIDEIHRLSRQAEEHLYPAMEDFVMDIVIGQGPAARTIRLELPRFTLIGATTRPGLITAPLLSRFGIVEHLEYYTPEELAQGVMRDARLLGVRITEEAALEIGRRSRGTMRVAKRLFRRVRDFAQVAGEEVITRERALEALAALGLDELGLEKRDREILEVLILRFGGGPVGLATLATALSEDPGTLEEVHEPYLIRQGLLKRTPRGRVATELAYRHLGYPPPVGPLLEP | soluble
6 | MNYHTATITCQTTRPIDIIDITADVRSALEESGLQQGTVTLLSRHTTACLNINEREERLMQDMTTWLKRFIPKDGDWLHNIETIDGRDNAHSHLLGLFMNSSETIPFSEGQLMLGKWQSIFFIELDGPRPKREVLVHIQGELEHHHHHH | soluble
7 | MQRVGNTFSNESRVASRCPSVGLAERNRVATMPVRLLRDSPAAQEDNDHARDGFQMKLDAHGFAPEELVVQVDGQWLMVTGQQQLDVRDPERVSYRMSQKVHRKMLPSNLSPTAMTCCLTPSGQLWVRGQCVALALPEAQTGPSPRLGSLGSKASNLTR | soluble
8 | MSLEKKVLATVGNTEITSDYIDEIIARYPAQQQAMLASDEGKRQVLEQAIAFELMSEFAKETGLDKTEEFKDQLNKFAKELLAQMVMKKTLSSVTVTDDEAKAFYEEHKENFVELETVTAKHILVASEEEAKKVEEEIASGSITFEDAANKYSSCPSKEQGGNLGSFSKGMMVPEFEEAAFNLELGVVSAPVKTQFGYHLIKVEDKTEAKTKAFEDVKEQVVNMLIQERQQKKYLELIKELREKYGVKLAEGHHHHHH | soluble
9 | MGSDKIHHHHHHMIRKHFKGYNFVCIPETGVTFRWGDSIAEDPYMAPWPELADISISNYCTNGCEYCYRASNEEGIFMTVADYKFILGQLTSKEYGSIFQVALGGGEPLLHPDFNEILHVTREEYGIIPNYTTCGKYFNQKNMEASKKYCGAVAVSWDPYRDNLSLEELRELGVQLKEEKIRTNIHYVISERTLIEAIKLLKGKYDEYLKDFNSVIFLTYKAAGRADKSDVIKSQKYLREFLDMVDAPLTKLKLGFDACFVPVLMKATGVDTDLVDSCECGFFSVYVSESMEVMPCSFCNNSNFTYNLKDLCFKDIWQKHFSAYRSYVNDNCKTGCAECDERSGCRGKCSFYNDIYLCNLV | not soluble
10 | AAVLTQDKNTPTYGPANGKVTVIEFFDYQCVYCSRLAPVMEQVIKAHPQTRFAFKEWPIFGGRWESSLEAAKTGLQIYQQKGADAYLAYHNGIYATGHNEGKLTTADIQQQAKKAGFDAKKAADVEPVLQSINDLAQEIGLSGTPGVIVMPTTGATEASITVFPGLADKASLEAAIKKAGG | not soluble
11 | MGHHHHHHSHTQDKNYEDELTQVALALVEDVINYAVKIVEEERNPLKNIKWMTHGEFTVEKGLKQIDEYFSKCVSKKCWAHGVEFVERKDLIHSFLYIYYVHWSISTADLPVARISAGTYFTMKVSKTKPPDAPIVVSYVGDHQALVHRPGMVRFRENWQKNLTDAKYSFMESFPFLFNRV | not soluble
12 | MDSELKEEIPVHEEFILCGGAETQVLKCGPWTDLFHDQSVKRPKLLIFIIPGNPGFSAFYVPFAKALYSLTNRRFPVWTISHAGHALAPKDKKILTTSEDSNAQEIKDIYGLNGQIEHKLAFLRTHVPKDMKLVLIGHSIGSYFTLQMLKRVPELPVIRAFLLFPTIERMSESPNGRIATPLLCWFRYVLYVTGYLLLKPCPETIKSLLIRRGLQVMNLENEFSPLNILEPFCLANAAYLGGQEMMEVVKRDDETIKEHLCKLTFYYGTIDPWCPKEYYEDIKKDFPEGDIRLCEKNIPHAFITHFNQEMADMIADSLKDDLSKM | soluble
13 | MGSSHHHHHHSSGLVPRGSHMAASTVAGELGLSITGLGVQYPPYSLGPDAIDILSKRYHPESPAMKKVLAINRYTGIDQRSSIGNPDHPLVNKPNPPTVKELHEVFMSDGVPLAVEASRKAMAEARLVPAQITHMVSTTCTDSANPGYDHYVAKELGLSDRLEKVLLHGIGCSGGLAALRTAANLCLGHTARGKPARILVLALEVSTTMVRSELESIDALQETRIGIALFSDCASAVILSNGIGEAPGKPAIYDLLGWENRVIPDSEHDLGFDVDPMGWKVVLSPRVPVLAKASLQPTYADLLSSLQDQLPSSYQKPADFDWAMHPGGATILSGAESAMGLTPEHMRASYDRYINHGNSSSATIFSVLNRLREKDMDALAPGGKVKEYVVGCAFGPGINVEMCMLKRRMNAPARTTTGLDTPPETDDSEGPGPGSSAGSDDGESIEGGEKEEKFINEALDNVELD | soluble
14 | MAANKPKGQNSLALHKVIMVGSGGVGKSALTLQFMYDEFVEDYEPTKADSYRKKVVLDGEEVQIDILDTAGQEDYAAIRDNYFRSGEGFLCVFSITEMESFAATADFREQILRVKEDENVPFLLVGNKSDLEDKRQVSVEEAKNRAEQWNVNYVETSAKTRANVDKVFFDLMREIRARKMEDSKEKNGKKKRKSLAKRIRERCCIL | soluble
15 | MHQRCNTRGGQDMGFDSRAAKKLKAMFKQQCRDAGAVCWLCGQPINYDAPPNSRDSFEPDHFYPQATHPELAEDPENLRPSHCSCNRSRKDGVPAPSLGSLSEQW | not soluble
16 | MQNEGQYAEADALLLSLVAAKDAHLMGERTVLGLPRRLHAARLRLAKAEGDLVARIGYQYTLVPPPDMLAKYTQFSAEDRRMINRKSREDVPRLIHQIWIGEKAPPISVKAWAAHAARHGYDYRLWREADLEREGVFSNAIFNRMLSEGDYPGAVDVARYILLERFGGIYLDCDWYPARDDRSFDAFVPLAGLTAFDEKTPRDTGQGSMLLANSFIAAPAGHPVFRKMLDSFPGIIEEMPRAPAWWSTGPLIFTVIARAGSISLAPASFVAVTLADRAPLEEVEAIRRELATQDSGMLIAWKSWLEHHHHHH | soluble
17 | MLLCDTNIWLALALSGHVHHRASRAWLDTINAPGVIHFCRATQQSLLRLLTNRTVLGAYGSPPLTNREAWAAYAAFLDDDRIVLAGAEPDGLEAQWRAFAVRQSPAPKVWMDAYLAAFALTGGFELVTTDTAFTQYGGIELRLLAK | not soluble
